{"source": "patent EP4745153A1", "about": "“GLP-1, GIP AND GCG RECEPTOR […] USE THEREOF” (Jiangsu Hengrui Pharmaceuticals Co., Ltd., priority 2023, dated 2025)", "experiment_in_all_cases": "cell-based or functional assay", "key": {"human glucagon receptor": {"target": "human glucagon receptor (human, UniProt P47871 26-477)", "sequence (P47871 26-477)": "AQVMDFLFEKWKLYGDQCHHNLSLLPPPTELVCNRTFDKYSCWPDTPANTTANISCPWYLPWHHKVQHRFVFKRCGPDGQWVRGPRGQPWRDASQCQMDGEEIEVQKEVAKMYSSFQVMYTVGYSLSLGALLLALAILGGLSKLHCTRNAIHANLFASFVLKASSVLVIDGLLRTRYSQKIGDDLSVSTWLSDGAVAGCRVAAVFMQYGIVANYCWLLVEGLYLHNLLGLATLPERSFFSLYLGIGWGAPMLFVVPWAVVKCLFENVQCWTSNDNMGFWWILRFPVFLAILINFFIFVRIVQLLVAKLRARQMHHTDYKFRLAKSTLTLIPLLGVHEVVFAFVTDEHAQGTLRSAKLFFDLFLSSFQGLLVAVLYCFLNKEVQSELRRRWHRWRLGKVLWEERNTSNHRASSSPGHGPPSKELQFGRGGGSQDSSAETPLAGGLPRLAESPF"}, "[1]": {"target": "T1, human glucose-dependent insulinotropic polypeptide receptor (human, UniProt P48546 22-466)", "T1 sequence (looked up)": "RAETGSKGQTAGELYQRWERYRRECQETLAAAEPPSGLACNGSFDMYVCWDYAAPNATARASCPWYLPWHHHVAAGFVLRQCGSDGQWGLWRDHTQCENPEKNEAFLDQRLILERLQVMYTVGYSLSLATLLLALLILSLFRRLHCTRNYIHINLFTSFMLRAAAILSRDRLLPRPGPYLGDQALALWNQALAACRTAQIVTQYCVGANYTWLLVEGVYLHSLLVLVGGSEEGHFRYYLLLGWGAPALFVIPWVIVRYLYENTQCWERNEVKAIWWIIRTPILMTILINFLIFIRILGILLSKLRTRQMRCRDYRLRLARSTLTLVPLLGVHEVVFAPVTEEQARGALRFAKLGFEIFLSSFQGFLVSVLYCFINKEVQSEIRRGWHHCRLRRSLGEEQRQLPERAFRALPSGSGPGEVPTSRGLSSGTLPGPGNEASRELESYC"}, "[2]": {"target": "human glucagon-like peptide-1 receptor (human, UniProt P43220 24-463)"}, "[3]": {"target": "T1, human glucose-dependent insulinotropic …", "remark": "listed apart in the source"}}, "note": "Read-outs that look alike come from different tables or passages of the source. Starred links: 1 amine or outer side, 2 acyl side, 3 side chain; linkers in the order of their positions; H or OH if unused. Non-standard residues stand in square brackets, D forms with d. Groups on a side chain read outwards from the residue. No end group written: not given here. *: point of attachment. C20 diacid = O=C(O)CCCCCCCCCCCCCCCCCCC(=O)*; γGlu = O=C(O)[C@H](CCC(=O)[*:2])N[*:1]; αMeK = C[C@](N)(CCCCN)C(=O)O; Iva = CC[C@](C)(N)C(=O)O; AEEA = NCCOCCOCC(=O)O; Aib = CC(C)(N)C(=O)O"}
{"binder": "H[Aib]HGTFTSDYS[αMeK]YLEK([AEEA-AEEA-γGlu-C20 diacid])KAQQEFVEWLLAGGPSSGAPPPS-NH2", "note": "[Compound No. 0113]", "values": [{"measurement": "Activity against human GCGR (EC50 nM)", "setting": "human glucagon receptor", "value": 5.91, "unit": "nM"}, {"measurement": "Activity against human GIPR (EC50 nM)", "setting": "[1]", "value": 0.015, "unit": "nM"}]}
{"binder": "H[Aib]HGTFTSDYS[αMeK]LLEK([AEEA-AEEA-γGlu-C20 diacid])QAA[Iva]EFVEWLLAGGPSSGAPPPS-NH2", "note": "[Compound No. 0128]", "values": [{"measurement": "Activity against human GLP-1R (EC50 nM)", "setting": "[2]", "value": 0.04, "unit": "nM"}, {"measurement": "Activity against human GIPR (EC50 nM)", "setting": "[3]", "value": 0.0005, "unit": "nM"}]}
{"binder": "H[Aib]HGTFTSDYS[αMeK]YLEK([AEEA-AEEA-γGlu-C20 diacid])KAAQEFVEWLIAGGPSSGAPPPS-NH2 (N-terminus assumed; SMILES CC[C@H](C)[C@H](NC(=O)[C@H](CC(C)C)NC(=O)[C@H](Cc1c[nH]c2ccccc12)NC(=O)[C@H](CCC(=O)O)NC(=O)[C@@H](NC(=O)[C@H](Cc1ccccc1)NC(=O)[C@H](CCC(=O)O)NC(=O)[C@H](CCC(N)=O)NC(=O)[C@H](C)NC(=O)[C@H](C)NC(=O)[C@H](CCCCN)NC(=O)[C@H](CCCCNC(=O)COCCOCCNC(=O)COCCOCCNC(=O)CC[C@H](NC(=O)CCCCCCCCCCCCCCCCCCC(=O)O)C(=O)O)NC(=O)[C@H](CCC(=O)O)NC(=O)[C@H](CC(C)C)NC(=O)[C@H](Cc1ccc(O)cc1)NC(=O)[C@](C)(CCCCN)NC(=O)[C@H](CO)NC(=O)[C@H](Cc1ccc(O)cc1)NC(=O)[C@H](CC(=O)O)NC(=O)[C@H](CO)NC(=O)[C@@H](NC(=O)[C@H](Cc1ccccc1)NC(=O)[C@@H](NC(=O)CNC(=O)[C@H](Cc1c[nH]cn1)NC(=O)C(C)(C)NC(=O)[C@@H](N)Cc1c[nH]cn1)[C@@H](C)O)[C@@H](C)O)C(C)C)C(=O)N[C@@H](C)C(=O)NCC(=O)NCC(=O)N1CCC[C@H]1C(=O)N[C@@H](CO)C(=O)N[C@@H](CO)C(=O)NCC(=O)N[C@@H](C)C(=O)N1CCC[C@H]1C(=O)N1CCC[C@H]1C(=O)N1CCC[C@H]1C(=O)N[C@@H](CO)C(N)=O)", "note": "[Compound No. 0111]", "values": [{"measurement": "Activity against human GCGR (EC50 nM)", "setting": "human glucagon receptor", "value": 0.552, "unit": "nM"}, {"measurement": "Activity against human GIPR (EC50 nM)", "setting": "[1]", "value": 0.024, "unit": "nM"}]}
